Substitutions are numbered along the chain they refer to. Names and notes keep the numbering of the source.

Experimental findings from patent US20240425559A1 (UNIVERSITY OF PITTSBURGH OF THE COMMONWEALTH SYSTEM OF …, published 2024) are described below.

The target in experiment [1] is T1, TGF-β type II receptor (TβRII) (UniProt P37173 38-159).
T1 construct: A purified protein was injected in ITC and run on native gels; also called TbRII; transforming growth factor-β type II receptor
In words: ITC, TβRII injected into the monomer, three replicates globally fit to a 1:1 model. The text has this: (§1) FIG. 5: Binding of the engineered TGF-beta monomers (mmTGF-β2-7M, left; mmTGF-β2-7M2R, middle; and mmTGF-β2-2M-Del7-16, right) to the TGF-β type II receptor (TβRII) as detected by isothermal titration calorimetry (ITC). Upper panels depict the raw thermograms for three replicate titrations, while the lower panels depict the integrated heat (data points) for the three replicate titrations globally fit to a 1:1 binding isotherm (smooth line).
(§2) In order to evaluate the ability of the mmTGF-β2-7M variants described herein (mmTGF-β2-7M2R (SEQ ID NO: 4), mmTGF-β2-2M-Del7-16 (SEQ ID NO: 5), and mmTGF-β2-7M-PRDC (SEQ ID NO: 7)) to bind TβRII, isothermal titration calorimetry (ITC) and native gels were used. The ITC binding experiments were performed by injecting increasing amounts of TβRII into mmTGF-β2-7M2R (SEQ ID NO: 4) or mmTGF-β2-2M-Del7-16 (SEQ ID NO: 5), with mmTGF-β2-7M (SEQ ID NO: 3) used a reference control. These titrations yielded readily detectable isotherms with a large negative enthalpy and a near 1:1 binding stoichiometry (FIG. 5).
On the technique in general: ITC needs no label: the signal is the heat of the interaction.

In experiment [2] the target is T1, TGF-β type II receptor (TβRII). Briefly: ITC; TβRII injected into the monomer; three replicate titrations globally fit to a 1:1 binding isotherm.
Text: as §1, §2

The target of experiment [3] is TGF-β type II receptor (TβRII) on HEK-293 CAGA-Luc TGF-β reporter cells (UniProt P37173 23-567, limits assumed). In words: cell-based or functional assay.
TGF-β type II receptor (TβRII) on HEK-293 CAGA-Luc TGF-β reporter cells, sequence (P37173 23-567 limits assumed): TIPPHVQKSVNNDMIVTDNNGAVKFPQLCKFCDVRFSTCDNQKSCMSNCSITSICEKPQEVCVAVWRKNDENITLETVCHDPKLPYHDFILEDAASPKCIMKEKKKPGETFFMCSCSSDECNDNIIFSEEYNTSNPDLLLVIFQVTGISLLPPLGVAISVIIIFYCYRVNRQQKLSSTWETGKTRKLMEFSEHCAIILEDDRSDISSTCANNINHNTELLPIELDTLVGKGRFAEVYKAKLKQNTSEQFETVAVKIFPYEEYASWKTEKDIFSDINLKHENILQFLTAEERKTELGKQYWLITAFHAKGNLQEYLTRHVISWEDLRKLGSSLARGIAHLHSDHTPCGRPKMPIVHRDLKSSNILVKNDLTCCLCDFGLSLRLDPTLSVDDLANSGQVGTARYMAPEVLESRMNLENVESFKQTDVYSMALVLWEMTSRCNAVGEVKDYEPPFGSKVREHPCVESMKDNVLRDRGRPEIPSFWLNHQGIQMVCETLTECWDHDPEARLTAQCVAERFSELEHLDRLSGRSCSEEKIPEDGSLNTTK

T1 sequence (P37173 38-159 limits assumed): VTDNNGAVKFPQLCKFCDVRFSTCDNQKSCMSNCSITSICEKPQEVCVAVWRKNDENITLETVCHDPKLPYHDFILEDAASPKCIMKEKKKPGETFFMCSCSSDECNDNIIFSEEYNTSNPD

B1: mmTGF-β2-7M (ligand)
chain: ALDAAYCFRNVQDNCCLRPLYIDFRKDLGWKWIHEPKGYNANFCAGACPYRASKSPSCVSQDLEPLTIVYYVGRKPKVEQLSNMIVKSCKCS
notes: also called engineered human TGF-β2 monomer mmTGF-β2-7M; mmTGF-B27M
Broadly, the Kd is the constant that tells how readily two partners part at equilibrium. Turning to B1, the affinity in experiment [1], expressed as Kd, was 60.5 nM. Further, in experiment [2], the ΔG is -9.85 kcal/mol, the ΔH was -4.63 kcal/mol and the ΔS is 17.5 cal/mol•K. Also, in experiment [3], the “IC50, HEK-293 CAGA-Luc TGF-β reporter assay, stimulation with 10 pM TGF-β3” value (from here on “IC50 … with 10 pM TGF-β3”) was found to be 58.2 nM.

B2: mmTGF-β2-2M-Del7-16 (ligand)
chain: B1 chain with C7V, C16A, K26R, V69L, V72I, K75T, V78I
As to B2, in experiment [1], binding was characterised by a dissociation constant (Kd) of 80.1 nM. In experiment [2], this molecule had a ΔG of -10 kcal/mol and a ΔH of -7.67 kcal/mol. For the same molecule, in experiment [3], the “IC50 … with 10 pM TGF-β3” value came out at 111 nM.

B3: mmTGF-β2-7M2R (ligand)
chain: B1 chain with S57R, V59R
Turning to B3, the Kd in experiment [1] was determined as 75.1 nM. In addition, in experiment [2], the ΔG was -10.1 kcal/mol, the ΔH was -10.5 kcal/mol and the ΔS was -1.44 cal/mol•K. For the same molecule, in experiment [3], the “IC50 … with 10 pM TGF-β3” value stood at 53.3 nM.

B4: mmTGF-β2-7M-PRDC (ligand)
chain: KEVLASSQEALVVTERKYLKSDWCKLRPLYIDFRKDLGWKWIHEPKGYNANFCYGQCNSFYIPRHVKKEEDSFQSSAFCVSQDLEPLTIVYYVGRKPKVEQLSNMIVKSCRCMSV
B4: in experiment [3], the “IC50 … with 10 pM TGF-β3” value is 282 nM and the “fold change of IC50 relative to mmTGF-β2-7M, HEK-293 CAGA-Luc TGF-β reporter assay” value is approximately 5 fold.
